Target: tau seeds from spinal cords of P301S transgenic animals (human), P10636
Experiment: cell-based or functional assay

Chain of tau seeds from spinal cords of P301S transgenic animals (human), P10636 (P10636 other isoform, or with tags, fused parts or gaps P301S P301S): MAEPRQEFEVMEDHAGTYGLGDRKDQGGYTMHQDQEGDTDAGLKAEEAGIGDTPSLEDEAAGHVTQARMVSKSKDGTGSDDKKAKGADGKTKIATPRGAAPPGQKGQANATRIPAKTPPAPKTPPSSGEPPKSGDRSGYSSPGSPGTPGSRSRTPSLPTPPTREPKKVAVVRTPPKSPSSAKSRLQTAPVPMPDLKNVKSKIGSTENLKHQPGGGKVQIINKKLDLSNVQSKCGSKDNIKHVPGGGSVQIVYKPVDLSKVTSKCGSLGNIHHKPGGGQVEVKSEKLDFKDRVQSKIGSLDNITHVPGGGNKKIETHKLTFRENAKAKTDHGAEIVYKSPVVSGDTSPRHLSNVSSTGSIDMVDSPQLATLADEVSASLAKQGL

B1: PT3 (mouse-hybridoma-derived antibody) (antibody, V domains shown)
VH: EVKLVESGGDLVKPGGSLKLSCAASGFTFSSYAMSWVRQNPEKRLEWVASISKGGNTYYPNSVKGRFTISRDNARNILYLQMSSLRSEDTALYYCARGWGDYGWFAYWGQVTLVTVSA
VL: DIKMTQSPSSMYASLGERVTITCKASQDINRYLNWFQQKPGKSPKTLIYRANRLLDGVPSRFSGSGSGQDYSLTISSLDYEDMGIYYCLQYDEFPLTFGDGTKLELK
modifications: here or on the partner: aggregated
Question: Which FRET/P301S spinal cord immunodepletion assay, 300 nM antibody (% of negative control) does the source give for B1 here?
Answer: 96.2

Question: And the blocking of aggregate induction (FRET assay) at 3 nM?
Answer: 30.7%

Question: And the blocking of aggregate induction (FRET assay) at 30 nM?
Answer: 37%

Question: And the inhibition of K18 aggregate induction, FRET/P301S spinal cord co-incubation assay, 300 nM antibody (% of negative control)?
Answer: 34
